This passage reports normalized brightness results from paper PMC3977201.

The target of this assay is APOBEC3G labeled with EGFP (A3G-EGFP), wild type (human), Q9HC16. Description: fluorescence fluctuation spectroscopy. The following applies: remark: other sources report otherwise.

B1: APOBEC3G labeled with EGFP (A3G-EGFP), wild type, Q9HC16 1-384 (natural protein)
chain: MKPHFRNTVERMYRDTFSYNFYNRPILSRRNTVWLCYEVKTKGPSRPPLDAKIFRGQVYSELKYHPEMRFFHWFSKWRKLHRDQEYEVTWYISWSPCTKCTRDMATFLAEDPKVTLTIFVARLYYFWDPDYQEALRSLCQKRDGPRATMKIMNYDEFQHCWSKFVYSQRELFEPWNNLPKYYILLHIMLGEILRHSMDPPTFTFNFNNEPWVRGRHETYLCYEVERMHNDTWVLLNQRRGFLCNQAPHKHGFLEGRHAELCFLDVIPFWKLDLDQDYRVTCFTSWSPCFSCAQEMAKFISKNKHVSLCIFTARIYDDQGRCQEGLRTLAEAGAKISIMTYSEFKHCWDTFVDHQGCPFQPWDGLDEHSQDLSGRLRAILQNQEN
The molecule B1 had a normalized brightness at 1 uM of 10.
